Results as given in patent publication US20220144960A1 (NANJING LEGEND BIOTECH, published 2022).

Assays:
[1] = target: T1, CD30 on CD30-expressing tumor cell lines (HH, MJ, H9) (UniProt P28908 19-595); assay: cell-based or functional assay
T1 sequence (looked up): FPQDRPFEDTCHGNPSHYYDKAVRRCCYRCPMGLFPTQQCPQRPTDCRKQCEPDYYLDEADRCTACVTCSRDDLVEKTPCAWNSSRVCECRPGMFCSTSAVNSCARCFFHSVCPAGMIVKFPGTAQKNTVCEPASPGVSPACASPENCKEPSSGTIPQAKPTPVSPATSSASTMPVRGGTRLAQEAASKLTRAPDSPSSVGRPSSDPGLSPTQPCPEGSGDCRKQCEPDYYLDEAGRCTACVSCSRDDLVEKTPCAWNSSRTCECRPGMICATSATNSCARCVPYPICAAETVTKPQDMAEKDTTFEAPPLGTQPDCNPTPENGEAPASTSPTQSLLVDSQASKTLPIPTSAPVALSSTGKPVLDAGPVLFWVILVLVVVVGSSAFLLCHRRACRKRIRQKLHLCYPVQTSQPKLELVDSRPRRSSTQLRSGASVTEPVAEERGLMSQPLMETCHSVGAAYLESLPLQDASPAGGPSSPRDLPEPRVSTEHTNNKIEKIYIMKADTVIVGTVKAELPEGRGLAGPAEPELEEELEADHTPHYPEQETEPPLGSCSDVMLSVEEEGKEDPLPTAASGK

[2] = target: T1, CD30 on CD30-expressing tumor cell …; assay: cell-based or functional assay; remark: listed apart in the source
[3] = target: T2, rhesus CD30 ECD (rhesus, UniProt P28908 19-379 (human entry)); assay: ELISA on rhesus CD30 ECD protein; member of the group by paragraph 437
T2 construct: Produced in house; also called recombinant rhesus CD30; rhesus CD30 protein
T2 chain: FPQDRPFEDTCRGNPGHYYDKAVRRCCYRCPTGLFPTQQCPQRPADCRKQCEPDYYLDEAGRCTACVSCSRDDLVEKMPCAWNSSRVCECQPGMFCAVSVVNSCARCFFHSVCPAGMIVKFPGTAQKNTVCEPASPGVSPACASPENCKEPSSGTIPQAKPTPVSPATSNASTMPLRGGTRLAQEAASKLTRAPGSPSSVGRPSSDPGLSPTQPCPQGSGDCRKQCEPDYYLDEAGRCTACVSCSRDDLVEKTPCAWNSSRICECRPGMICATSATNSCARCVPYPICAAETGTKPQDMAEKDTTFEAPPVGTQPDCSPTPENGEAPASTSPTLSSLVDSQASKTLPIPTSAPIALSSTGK

[4] = target: T3, recombinant human CD30 extra cellular domain (ECD) protein (human, UniProt P28908 19-379); assay: SPR Biacore T200, His-tagged sdAb/Fab captured, 100.0 nM human CD30 as analyte, single curve
T3 construct: Bought from R&D systems; also called rhCD30; human CD30 ECD
T3 sequence: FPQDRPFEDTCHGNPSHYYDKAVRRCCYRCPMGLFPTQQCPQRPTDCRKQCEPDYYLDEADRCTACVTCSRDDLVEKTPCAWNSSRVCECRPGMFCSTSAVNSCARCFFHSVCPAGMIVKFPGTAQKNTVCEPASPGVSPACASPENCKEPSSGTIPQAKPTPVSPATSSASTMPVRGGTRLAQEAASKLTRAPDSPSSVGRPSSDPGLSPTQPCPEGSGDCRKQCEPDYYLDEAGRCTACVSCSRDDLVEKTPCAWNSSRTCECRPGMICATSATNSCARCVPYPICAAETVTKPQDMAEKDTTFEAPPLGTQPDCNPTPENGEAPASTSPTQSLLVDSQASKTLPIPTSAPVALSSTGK
Method: Some of these unique binders were subjected to for further characterization by surface plasmon resonance (SPR) on a BIAcore T200 instrument (GE Healthcare). The experiment was carried out as follows. The crude sdAb/Fab proteins were captured through an affinity tag (6×Histidine tag) onto the sensorchip. High-concentration (100.0 nM) of human CD30 (R&D systems, Cat. #6126-CD) flowed over the sensorchip surface, and were allowed to bind the antibody fragments for 300 s followed by injection of the running buffer to allow dissociation of the complex. On-rate ([…] and off-rate (kd) were roughly calculated based on one association and dissociation curve, and were used to estimate the equilibrium dissociation constant (KD). 5F11 scFv (SEQ ID NO:216, prepared according to WO2017066122) was used as a positive control. Data were summarized in Table 3 below. The first 10 antibodies in Table 3 were sdAbs with amino acid sequence ID numbers summarized in Table 1, the last antibody was 5F11 scFv, and the remainings were human Fabs with CDR and scFv amino acid sequence ID numbers in Table 2.

B1: AS48542VH5dil-bbz CAR (other)
chain: EVQLVESGGGLVQPGGSLRLSCATSAFTFDGPDMAWYRQAPGKGCELVSIISADGRTYYADSVKGRFTISRDNSKNTVYLQMNSLRAEDTAVYYCALDPRKNCRGGYCCANWGQGTLVTVSSGGGGSGGGGSGGGGSEVQLVESGGGLVQPGGSLRLSCATSAFTFDGPDMAWYRQAPGKGCELVSIISADGRTYYADSVKGRFTISRDNSKNTVYLQMNSLRAEDTAVYYCALDPRKNCRGGYCCANWGQGTLVTVSSTTTPAPRPPTPAPTIASQPLSLRPEACRPAAGGAVHTRGLDFACDIYIWAPLAGTCGVLLLSLVITLYCKRGRKKLLYIFKQPFMRPVQTTQEEDGCSCRFPEEEEGGCELRVKFSRSADAPAYKQGQNQLYNELNLGRREEYDVLDKRRGRDPEMGGKPRRKNPQEGLYNELQKDKMAEAYSEIGMKGERRRGKGHDGLYQGLSTATKDTYDALHMQALPPR
% H9 cell lysis E:T = 0.2:1 (FACS method, CAR T cells) [1]: 40.4% | % MJ cell lysis E:T = 0.2:1 (FACS method, CAR T cells) [1]: 63.4% | % H9 cell lysis E:T = 2:1 (LDH assay, CAR T cells) [2]: 66% | % MJ cell lysis E:T = 1:1 (LDH assay, CAR T cells) [2]: 64%

B2: AS48463VH4dil-bbz CAR (other)
chain: EVQLLESGGGLVQPGGSLRLSCAASGFTFANSDMGWYRQAPGKGCELVSIISSHGGTTYYVDSVKGRFTISRDNSKNTLYLQMNSLRAEDTAVYYCVADPRSNCRGGYCCGYWGQGTLVTVSSGGGGSGGGGSGGGGSEVQLLESGGGLVQPGGSLRLSCAASGFTFANSDMGWYRQAPGKGCELVSIISSHGGTTYYVDSVKGRFTISRDNSKNTLYLQMNSLRAEDTAVYYCVADPRSNCRGGYCCGYWGQGTLVTVSSTTTPAPRPPTPAPTIASQPLSLRPEACRPAAGGAVHTRGLDFACDIYIWAPLAGTCGVLLLSLVITLYCKRGRKKLLYIFKQPFMRPVQTTQEEDGCSCRFPEEEEGGCELRVKFSRSADAPAYKQGQNQLYNELNLGRREEYDVLDKRRGRDPEMGGKPRRKNPQEGLYNELQKDKMAEAYSEIGMKGERRRGKGHDGLYQGLSTATKDTYDALHMQALPPR
% H9 cell lysis E:T = 0.2:1 (FACS method, CAR T cells) [1]: 30.8% | % MJ cell lysis E:T = 0.2:1 (FACS method, CAR T cells) [1]: 26.3% | % H9 cell lysis E:T = 2:1 (LDH assay, CAR T cells) [2]: 63% | % MJ cell lysis E:T = 1:1 (LDH assay, CAR T cells) [2]: 53%

B3: AS47863VH4dil-bbz CAR (other)
chain: EVQLVESGGGLVQPGGSLRLSCAASGSTFGDSDMGWYRQAPGKGCELVSIISSDGRTYYVDSVKGRFTISQDNSKNTLYLQMNSLRAEDTAVYYCAADLRQYCRDGRCCGYWGQGTLVTVSSGGGGSGGGGSGGGGSEVQLVESGGGLVQPGGSLRLSCAASGSTFGDSDMGWYRQAPGKGCELVSIISSDGRTYYVDSVKGRFTISQDNSKNTLYLQMNSLRAEDTAVYYCAADLRQYCRDGRCCGYWGQGTLVTVSSTTTPAPRPPTPAPTIASQPLSLRPEACRPAAGGAVHTRGLDFACDIYIWAPLAGTCGVLLLSLVITLYCKRGRKKLLYIFKQPFMRPVQTTQEEDGCSCRFPEEEEGGCELRVKFSRSADAPAYKQGQNQLYNELNLGRREEYDVLDKRRGRDPEMGGKPRRKNPQEGLYNELQKDKMAEAYSEIGMKGERRRGKGHDGLYQGLSTATKDTYDALHMQALPPR
% H9 cell lysis E:T = 0.2:1 (FACS method, CAR T cells) [1]: 44.2% | % MJ cell lysis E:T = 0.2:1 (FACS method, CAR T cells) [1]: 30.4% | % H9 cell lysis E:T = 2:1 (LDH assay, CAR T cells) [2]: 64% | % MJ cell lysis E:T = 1:1 (LDH assay, CAR T cells) [2]: 50%

B4: AS53574VH7-AS48542VH5bil-bbz CAR (other)
chain: EVQLVESGGGLVQPGGSLRLSCAASGYIYSSNCMGWFRQAPGKGREWVARIHTGSGSTYYADSVKGRFTISQDNSKNTLYLQMNSLRAEDTAVYDCAAGRVVLGAVVCTNEYWGQGTLVTVSSGGGGSGGGGSGGGGSEVQLVESGGGLVQPGGSLRLSCATSAFTFDGPDMAWYRQAPGKGCELVSIISADGRTYYADSVKGRFTISRDNSKNTVYLQMNSLRAEDTAVYYCALDPRKNCRGGYCCANWGQGTLVTVSSTTTPAPRPPTPAPTIASQPLSLRPEACRPAAGGAVHTRGLDFACDIYIWAPLAGTCGVLLLSLVITLYCKRGRKKLLYIFKQPFMRPVQTTQEEDGCSCRFPEEEEGGCELRVKFSRSADAPAYKQGQNQLYNELNLGRREEYDVLDKRRGRDPEMGGKPRRKNPQEGLYNELQKDKMAEAYSEIGMKGERRRGKGHDGLYQGLSTATKDTYDALHMQALPPR
% H9 cell lysis E:T = 0.2:1 (FACS method, CAR T cells) [1]: 29.8% | % MJ cell lysis E:T = 0.2:1 (FACS method, CAR T cells) [1]: 50.5% | % H9 cell lysis E:T = 2:1 (LDH assay, CAR T cells) [2]: 84% | % MJ cell lysis E:T = 1:1 (LDH assay, CAR T cells) [2]: 76%

B5: AS53574VH7-AS48463VH4bil-bbz CAR (other)
chain: EVQLVESGGGLVQPGGSLRLSCAASGYIYSSNCMGWFRQAPGKGREWVARIHTGSGSTYYADSVKGRFTISQDNSKNTLYLQMNSLRAEDTAVYDCAAGRVVLGAVVCTNEYWGQGTLVTVSSGGGGSGGGGSGGGGSEVQLLESGGGLVQPGGSLRLSCAASGFTFANSDMGWYRQAPGKGCELVSIISSHGGTTYYVDSVKGRFTISRDNSKNTLYLQMNSLRAEDTAVYYCVADPRSNCRGGYCCGYWGQGTLVTVSSTTTPAPRPPTPAPTIASQPLSLRPEACRPAAGGAVHTRGLDFACDIYIWAPLAGTCGVLLLSLVITLYCKRGRKKLLYIFKQPFMRPVQTTQEEDGCSCRFPEEEEGGCELRVKFSRSADAPAYKQGQNQLYNELNLGRREEYDVLDKRRGRDPEMGGKPRRKNPQEGLYNELQKDKMAEAYSEIGMKGERRRGKGHDGLYQGLSTATKDTYDALHMQALPPR
% H9 cell lysis E:T = 0.2:1 (FACS method, CAR T cells) [1]: 38.3% | % MJ cell lysis E:T = 0.2:1 (FACS method, CAR T cells) [1]: 40.7% | % H9 cell lysis E:T = 2:1 (LDH assay, CAR T cells) [2]: 78% | % MJ cell lysis E:T = 1:1 (LDH assay, CAR T cells) [2]: 59%

B6: AS53574VH7-AS47863VH4bil-bbz CAR (other)
chain: EVQLVESGGGLVQPGGSLRLSCAASGYIYSSNCMGWFRQAPGKGREWVARIHTGSGSTYYADSVKGRFTISQDNSKNTLYLQMNSLRAEDTAVYDCAAGRVVLGAVVCTNEYWGQGTLVTVSSGGGGSGGGGSGGGGSEVQLVESGGGLVQPGGSLRLSCAASGSTFGDSDMGWYRQAPGKGCELVSIISSDGRTYYVDSVKGRFTISQDNSKNTLYLQMNSLRAEDTAVYYCAADLRQYCRDGRCCGYWGQGTLVTVSSTTTPAPRPPTPAPTIASQPLSLRPEACRPAAGGAVHTRGLDFACDIYIWAPLAGTCGVLLLSLVITLYCKRGRKKLLYIFKQPFMRPVQTTQEEDGCSCRFPEEEEGGCELRVKFSRSADAPAYKQGQNQLYNELNLGRREEYDVLDKRRGRDPEMGGKPRRKNPQEGLYNELQKDKMAEAYSEIGMKGERRRGKGHDGLYQGLSTATKDTYDALHMQALPPR
% H9 cell lysis E:T = 0.2:1 (FACS method, CAR T cells) [1]: 41.6% | % MJ cell lysis E:T = 0.2:1 (FACS method, CAR T cells) [1]: 71.3% | % H9 cell lysis E:T = 2:1 (LDH assay, CAR T cells) [2]: 72% | % MJ cell lysis E:T = 1:1 (LDH assay, CAR T cells) [2]: 56%

B7: AS48481 sdAb (VHH)
VHH: EVQLVASGGGSVQAGETLRLSCTASGFTFADSAMGWYRKGPGNVCDLVAIIRTDGTTYYGDSAKGRFTISRDNAKSTLYLQMNSLKPEDTAVYFCAADRETSFIGGSWCVAKYWDQGTQVTVSS
notes: Camel sdAb
binding result [3]: binds | Kd [4]: 95 nM | koff [4]: 0.0081 s⁻¹ | kon [4]: 86000 M⁻¹ s⁻¹ | rhCD30 Binding (RU) [4]: 26.3 RU
